From patent publication US20240270804

Molecular target: T1, myc- and green-fluorescent protein (GFP) tagged mAKAP 1694-1833 (UniProt Q9WVC7)
T1 sequence: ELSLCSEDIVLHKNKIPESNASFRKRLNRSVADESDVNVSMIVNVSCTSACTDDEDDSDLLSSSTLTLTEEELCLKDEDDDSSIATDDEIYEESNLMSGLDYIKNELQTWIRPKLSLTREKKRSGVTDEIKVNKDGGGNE

Substance: endogenous CaMKII (Ca2+/calmodulin-dependent protein kinase II) of neonatal rat ventricular myocytes
- HDAC4 phosphorylation (basal and Angiotensin II-induced) in neonatal myocytes: both basal and Angiotensin II-induced HDAC4 phosphorylation in neonatal myocytes is inhibited by mAKAP 1694-1833 expression
